From US20220389118A1 (Chugai, published 2022)
Where a chain is given by its changes, count along the chain named. Names may count otherwise. Read-outs that look alike come from different tables or passages of the source.

Key:
[1] = biological target: T1, human FcγRIIIa type V extracellular domain with C-terminal His tag (human, UniProt P08637 17-208); assay: SPR (Biacore)
T1 construct: extracellular domain; also called FcγRIIIaV; FcgRIIIaV
T1 sequence (P08637 17-208 F176V): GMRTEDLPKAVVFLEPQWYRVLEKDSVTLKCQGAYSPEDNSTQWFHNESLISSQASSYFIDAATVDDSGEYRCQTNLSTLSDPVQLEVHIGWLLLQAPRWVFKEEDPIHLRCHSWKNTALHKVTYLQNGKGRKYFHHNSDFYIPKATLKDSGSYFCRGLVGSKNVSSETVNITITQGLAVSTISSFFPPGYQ

[2] = biological target: T2, human FcγRIIa type R extracellular domain with C-terminal His tag (human, UniProt P12318 34-217); assay: SPR (Biacore)
T2 construct: extracellular domain; also called FcγRIIaR; FcgRIIaR
T2 sequence (looked up): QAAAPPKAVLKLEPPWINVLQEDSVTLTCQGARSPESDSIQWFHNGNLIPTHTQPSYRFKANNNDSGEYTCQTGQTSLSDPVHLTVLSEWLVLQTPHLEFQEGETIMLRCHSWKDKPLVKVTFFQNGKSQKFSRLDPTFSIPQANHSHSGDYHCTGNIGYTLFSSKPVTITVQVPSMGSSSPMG

[3] = biological target: T3, human FcγRIIa type R (R131) extracellular domain with C-terminal His tag (human, UniProt P12318 34-217); assay: SPR (Biacore), antibody captured, FcγR analyte
T3 construct: extracellular domain; also called FcγRIIaR; not shown: His tag at the C terminus
T3 sequence (looked up): T2 sequence (looked up)

[4] = biological target: T4, human FcγRIIa type R extracellular domain with C-terminal His tag (human, UniProt P12318 34-217); assay: SPR, Ref. Ex. 25
T4 construct: extracellular domain; also called FcγRIIaR; FcγRIIa R
T4 sequence (looked up): T2 sequence (looked up)

[5] = biological target: T5, human FcγRIIIa type V extracellular domain with C-terminal His tag (human, UniProt P08637 17-208); assay: SPR, Ref. Ex. 25
T5 construct: extracellular domain; also called FcγRIIIaV; FcγRIIIa V type
T5 sequence (P08637 17-208 F176V): as the sequence (P08637 17-208 F176V) above

[6] = biological target: T6, human FcγRIIb extracellular domain with C-terminal His tag (human, UniProt P31994 43-217); assay: SPR, Ref. Ex. 25
T6 construct: extracellular domain; for crystals expressed with kifunensine and trimmed with Endo F1; also called FcγRIIb extracellular region
T6 sequence (looked up): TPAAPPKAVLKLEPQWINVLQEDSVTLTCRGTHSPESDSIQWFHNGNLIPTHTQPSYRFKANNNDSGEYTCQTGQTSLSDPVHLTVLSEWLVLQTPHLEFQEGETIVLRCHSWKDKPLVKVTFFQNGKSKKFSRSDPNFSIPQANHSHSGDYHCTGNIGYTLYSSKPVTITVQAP

[7] = biological target: T7, human FcγRIIa type H extracellular domain with C-terminal His tag (human, UniProt P12318 34-217); assay: SPR (Biacore)
T7 construct: extracellular domain; also called FcγRIIaH; FcgRIIaH
T7 sequence (looked up): T2 sequence (looked up) with R134H

[8] = biological target: T3, human FcγRIIa type R (R131) …; assay: SPR (Biacore), antibody captured, FcγR analyte; remark: listed apart in the source
[9] = biological target: T8, human FcγRIIb extracellular domain with C-terminal His tag (human, UniProt P31994 43-217); assay: SPR (Biacore), antibody captured, FcγR analyte
T8 construct: extracellular domain; not shown: His tag at the C terminus
T8 sequence (looked up): T6 sequence (looked up)

[10] = biological target: T9, human FcγRIIa type H (allotype H131) extracellular domain with C-terminal His tag (human, UniProt P12318 34-217); assay: SPR (Biacore), antibody captured, FcγR analyte
T9 construct: extracellular domain; also called FcγRIIaH; FcγRIIa H type; not shown: His tag at the C terminus
T9 sequence (looked up): T2 sequence (looked up) with R134H

[11] = biological target: T10, human FcγRIIIa type V (allotype V158) extracellular domain with C-terminal His tag (human, UniProt P08637 17-208); assay: SPR (Biacore), antibody captured, FcγR analyte
T10 construct: extracellular domain; also called FcγRIIIaV; FcγRIIIa V type; not shown: His tag at the C terminus
T10 sequence (P08637 17-208 F176V): as the sequence (P08637 17-208 F176V) above

[12] = biological target: T11, human FcγRIIb extracellular domain with C-terminal His tag (human, UniProt P31994 43-217); assay: SPR (Biacore), antibody captured, FcγR as analyte
T11 construct: extracellular domain; also called FcgRIIb
T11 sequence (looked up): T6 sequence (looked up)

[13] = biological target: T12, human FcγRIa extracellular domain with C-terminal His tag (human, UniProt P12314 16-292); assay: SPR (Biacore), antibody captured, FcγR as analyte
T12 construct: also called FcgRIa
T12 sequence (P12314 16-292): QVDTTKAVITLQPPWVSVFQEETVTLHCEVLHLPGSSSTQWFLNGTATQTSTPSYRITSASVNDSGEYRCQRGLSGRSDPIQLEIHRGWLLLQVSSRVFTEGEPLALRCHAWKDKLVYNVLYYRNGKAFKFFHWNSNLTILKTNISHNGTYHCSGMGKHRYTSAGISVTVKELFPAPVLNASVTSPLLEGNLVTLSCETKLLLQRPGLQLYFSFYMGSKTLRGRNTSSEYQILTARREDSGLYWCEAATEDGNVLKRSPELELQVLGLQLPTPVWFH

[14] = biological target: T13, human FcγRIIa type R extracellular domain with C-terminal His tag (human, UniProt P12318 34-217); assay: SPR (Biacore), antibody captured, FcγR as analyte
T13 construct: extracellular domain; also called FcγRIIaR; FcgRIIaR
T13 sequence (looked up): T2 sequence (looked up)

[15] = biological target: T14, human FcγRIIb extracellular domain with C-terminal His tag (human, UniProt P31994 43-217); assay: SPR (Biacore), antibody captured, FcγR analyte; remark: listed apart in the source
T14 construct: extracellular domain; not shown: His tag at the C terminus
T14 sequence (looked up): T6 sequence (looked up)

[16] = biological target: T15, human FcγRIa extracellular domain with C-terminal His tag (human, UniProt P12314 16-292); assay: SPR (Biacore), antibody captured, FcγR analyte
T15 construct: not shown: His tag at the C terminus
T15 sequence (P12314 16-292): as above

[17] = biological target: T16, human FcγRIIa type H (H131) extracellular domain with C-terminal His tag (human, UniProt P12318 34-217); assay: SPR (Biacore), antibody captured, FcγR analyte
T16 construct: extracellular domain; also called FcγRIIaH; not shown: His tag at the C terminus
T16 sequence (looked up): T2 sequence (looked up) with R134H

[18] = biological target: T17, human FcγRIa extracellular domain with C-terminal His tag (human, UniProt P12314 16-292); assay: SPR (Biacore), antibody captured, FcγR analyte; remark: listed apart in the source
T17 construct: not shown: His tag at the C terminus
T17 sequence (P12314 16-292): as above

B1: IL6R-2B253/IL6R-L (antibody, human IgG1, kappa)
heavy: QVQLQESGPGLVKPSETLSLTCAVSGHSISHDHAWSWVRQPPGEGLEWIGFISYSGITNYNPSLQGRVTISRDNSKNTLYLQMNSLRAEDTAVYYCARSLARTTAMDYWGEGTLVTVSSASTKGPSVFPLAPSSKSTSGGTAALGCLVKDYFPEPVTVSWNSGALTSGVHTFPAVLQSSGLYSLSSVVTVPSSSLGTQTYICNVNHKPSNTKVDKKVEPKSCDKTHTCPPCPAPDLLGGDSVFLFPPKPKDTLMISRTPEVTCVVVDVSHEDPEVKFNWYVDGVEVHNAKTKPREEQYNSTYRVVSVLTVLHQDWLNGKEYKCKMSNKALPAPIEKTISKAKGQPREPQVYTLPPSRDELTKNQVSLTCLVKGFYPSDIAVEWESNGQPENNYKTTPPVLDSDGSFFLYSKLTVDKSRWQQGNVFSCSVMHEALHNHYTQESLSLSP
light: not shown
notes: EU numbering; alterations on IL6R-B3; copies: 2 + 2
- Kd [1]: 50000 nM
- Kd [2]: 5000 nM

B2: IL6R-BP517/IL6R-L (antibody, human IgG1, kappa)
heavy: B1 heavy with G239D, H270E, P273G, E274I, M325V
light: not shown
notes: E272I introduced into IL6R-BP267; copies: 2 + 2
- Kd [3]: 2100 nM

B3: IL6R-PD080/IL6R-L (antibody, human IgG1, kappa)
heavy: B1 heavy with D235E, G239D, M254Y, M325V, N436Y, E441K
light: not shown
notes: also called P238D/G237D; G237D/P238D; copies: 2 + 2
- Kd [4]: 21000 nM
- Kd [5]: 43000 nM
- Kd [6]: 2000 nM

B4: IL6R-BP132/IL6R-L (antibody, human IgG1, kappa)
heavy: B1 heavy with M325V, K328A, A332K
light: not shown
notes: as for B1
- Kd [7]: 30000 nM
- Kd [2]: 8000 nM

B5: IL6R-BP475/IL6R-L (antibody, human IgG1, kappa)
heavy: B1 heavy with G239D, H270D, P273G, Y298D, M325V, A329G, A332S
light: not shown
notes: A327G and A330S introduced into IL6R-BP230; copies: 2 + 2
- Kd [8]: 1000 nM

B6: IL6R-BP228/IL6R-L (antibody, human IgG1, kappa)
heavy: B1 heavy with D235E, L236Y, G239D, S269Q, H270D, P273G, M325V, K328D, A332R
light: not shown
notes: copies: 2 + 2
- Kd [9]: 40 nM

B7: IL6R-PD079/IL6R-L (antibody, human IgG1, kappa)
heavy: B1 heavy with D235E, G239A, M254Y, M325V, N436Y, E441K
light: not shown
notes: also called P238D/G237A; G237A/P238D; copies: 2 + 2
- Kd [4]: 32000 nM
- Kd [5]: 37000 nM
- Kd [6]: 3000 nM

B8: IL6R-BP241/IL6R-L (antibody, human IgG1, kappa)
heavy: B1 heavy with G239D, H270D, P273G, M325V, K328D, A332R
light: not shown
notes: copies: 2 + 2
- Kd [10]: 9000 nM

B9: IL6R-BP217/IL6R-L (antibody, human IgG1, kappa)
heavy: B1 heavy with D235E, G239D, S269Q, H270D, P273G, Y298D, M325V, A332K
light: not shown
notes: copies: 2 + 2
- Kd [11]: 60000 nM

B10: IL6R-2B172/IL6R-L (antibody, human IgG1, kappa)
heavy: B1 heavy with D235E
light: not shown
notes: IgG1 type
- KD(IIb) of parent polypeptide/KD(IIb) of altered polypeptide [12]: 4 fold vs IL6R-B3/IL6R-L
- Kd [13]: 3 nM
- Kd [14]: 6100 nM

B11: IL6R-BP239/IL6R-L (antibody, human IgG1, kappa)
heavy: B1 heavy with L236Y, G239D, S269Q, H270D, P273G, Y298D, M325V, K328A, A332R
light: not shown
notes: copies: 2 + 2
- Kd [9]: 60 nM

B12: IL6R-BP085/IL6R-L (antibody, human IgG1, kappa)
heavy: B1 heavy with D235E, G239D, M325V, A332K
light: not shown
notes: as for B1
- Kd [1]: 68000 nM
- Kd [2]: 4200 nM

B13: IL6R-BP367/IL6R-L (antibody, human IgG1, kappa)
heavy: B1 heavy with G239D, H270E, E271D, P273G, M325V
light: not shown
notes: E269D introduced into IL6R-BP267; copies: 2 + 2
- Kd [15]: 100 nM

B14: IL6R-BP106/IL6R-L (antibody, human IgG1, kappa)
heavy: B1 heavy with D235E, H270D, M325V
light: not shown
notes: IgG1 type
- KD(IIb) of parent polypeptide/KD(IIb) of altered polypeptide [12]: 3.3 fold vs IL6R-B3/IL6R-L
- Kd [13]: 4 nM
- Kd [14]: 11000 nM

B15: IL6R-BP514/IL6R-L (antibody, human IgG1, kappa)
heavy: B1 heavy with G239D, H270E, P273G, E274F, M325V
light: not shown
notes: E272F introduced into IL6R-BP267; copies: 2 + 2
- Kd [3]: 3000 nM

B16: IL6R-BP243/IL6R-L (antibody, human IgG1, kappa)
heavy: B1 heavy with L236Y, G239D, H270D, P273G, M325V, A332R
light: not shown
notes: copies: 2 + 2
- Kd [16]: 3 nM
- Kd [10]: 6000 nM

B17: IL6R-PD042/IL6R-L (antibody, human IgG1, kappa)
heavy: B1 heavy with D235E, L236W, M254Y, M325V, N436Y, E441K
light: not shown
notes: also called P238D/L234W; L234W/P238D; copies: 2 + 2
- Kd [4]: 16000 nM
- Kd [5]: 37000 nM
- Kd [6]: 2000 nM

B18: IL6R-BP350/IL6R-L (antibody, human IgG1, kappa)
heavy: B1 heavy with G239D, S269E, H270E, P273G, M325V
light: not shown
notes: S267E introduced into IL6R-BP267; copies: 2 + 2
- Kd [15]: 100 nM

B19: IL6R-BP231/IL6R-L (antibody, human IgG1, kappa)
heavy: B1 heavy with D235E, G239D, H270D, P273G, Y298D, M325V, A332R
light: not shown
notes: copies: 2 + 2
- Kd [11]: 40000 nM

B20: IL6R-BP119/IL6R-L (antibody, human IgG1, kappa)
heavy: B1 heavy with D235E, M325V, K328M
light: not shown
notes: IgG1 type
- KD(IIb) of parent polypeptide/KD(IIb) of altered polypeptide [12]: 2.7 fold vs IL6R-B3/IL6R-L
- Kd [13]: 7 nM
- Kd [14]: 9900 nM

B21: IL6R-BP447/IL6R-L (antibody, human IgG1, kappa)
heavy: B1 heavy with G239D, S269A, H270E, P273G, M325V, A332R, P398A
light: not shown
notes: P396A introduced into IL6R-BP423; copies: 2 + 2
- Kd [17]: 2000 nM
- Kd [18]: 0.9 nM

B22: IL6R-BP348/IL6R-L (antibody, human IgG1, kappa)
heavy: B1 heavy with G239D, S269A, H270E, P273G, M325V
light: not shown
notes: S267A introduced into IL6R-BP267; copies: 2 + 2
- Kd [3]: 700 nM

B23: IL6R-BP471/IL6R-L (antibody, human IgG1, kappa)
heavy: B1 heavy with G239D, H270D, P273G, Y298D, M325V, A332R, P333S
light: not shown
notes: P331S introduced into IL6R-BP230; copies: 2 + 2
- Kd [8]: 800 nM

B24: IL6R-BP237/IL6R-L (antibody, human IgG1, kappa)
heavy: B1 heavy with L236Y, G239D, S269Q, H270D, P273G, Y298D, M325V, K328A, A332K
light: not shown
notes: copies: 2 + 2
- Kd [9]: 100 nM

B25: IL6R-BP520/IL6R-L (antibody, human IgG1, kappa)
heavy: B1 heavy with G239D, H270E, P273G, E274M, M325V
light: not shown
notes: E272M introduced into IL6R-BP267; copies: 2 + 2
- Kd [3]: 3000 nM

B26: IL6R-BP474/IL6R-L (antibody, human IgG1, kappa)
heavy: B1 heavy with G239D, H270D, P273G, Y298D, M325V, A332S, P333S
light: not shown
notes: A330S and P331S introduced into IL6R-BP230; copies: 2 + 2
- Kd [8]: 3000 nM
